Experimental findings from patent US20200216522A1 (DENALI THERAPEUTICS, published 2020) are described below.

Substitutions are numbered along the chain they refer to. Square brackets hold non-standard residues; d marks the D form. * marks the point of attachment. Biotin = O=C1N[C@H]2[C@H](CS[C@H]2CCCCC(=O)*)N1; pS = N[C@@H](COP(=O)(O)O)C(=O)O

In general, Kd refers to a measure of binding affinity in units of concentration. Broadly, the koff is the first-order rate constant of dissociation. The kon is a measure of how fast the partners come together.

The target of assay [1] is T1, full-length human Tau (Tau441; 2N4R), recombinant (human, UniProt P10636 1-758).
T1 construct: made in E. coli, His6-Smt3 tag removed; biotinylated through amines for Octet and phage work; also called r-Tau; recombinant Tau
The experiment in a line: SPR Biacore, IgG captured, r-Tau injected. How it is done:
(§1) The affinity of chimeric IgG antibodies 1C7, 1A1, 1A5, 1D10, and 1G7 for recombinant Tau was determined by surface plasmon resonance using a Biacore™ T200 instrument. Biacore™ Series S CM5 sensor chips were immobilized with monoclonal mouse anti-human IgG (Fc) antibody (human antibody capture kit from GE Healthcare). 1 μg/mL of antibody was captured for 1 minute on each flow cell and serial 3-fold dilutions of recombinant Tau were injected at a flow rate of […]. Each sample was analyzed with a 3-minute association and a 10-minute dissociation. After each injection the chip was regenerated using 3M MgCl₂. Binding response was corrected by subtracting the RU from a flow cell capturing an irrelevant IgG at similar density. A 1:1 Languir model of simultaneous fitting of kₒₙ and koff was used for kinetics analysis.
(In general: SPR reads the build-up and loss of mass on a sensor chip optically.)

Assay [2] has as its target T2, Tau 346-360 peptide phosphorylated at Ser352 (human, SMILES …).
T2 construct: also called pSer352
T2 peptide: Biotin-FKDRVQ[pS]KIGSLDNI-NH2
The experiment in a line: ELISA on biotinylated peptide. Here is the method: (§2) Peptides corresponding to original binding sites on the microarray were synthesized and included all permutations of phospho-serine epitopes. Peptides were synthesized with a biotinylated N-terminus and C-terminal amide. Peptides were purified and confirmed by mass spectrometry. Peptides were then bound to streptavidin-coated plates in half serial dilutions from 250 ng/well of each peptide. Antibody binding was tested at 1 μg/mL in 5% BSA TBST, followed by washing and detection with goat anti-human HRP (as described above in the “Chimeric IgG ELISA” section).
For orientation: An ELISA detects its analyte on a solid surface through an enzyme-linked reagent.

Assay [3] has as its target T3, Tau 251-270 peptide, unphosphorylated (human, N-terminal biotin; C-terminal amide).
T3 peptide: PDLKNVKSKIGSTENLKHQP
The experiment in a line: ELISA on biotinylated peptide. How it is done:
as §2

In assay [4] the target is T4, Tau 346-360 peptide, unphosphorylated (human, SMILES …).
T4 peptide: Biotin-FKDRVQSKIGSLDNI-NH2
The experiment in a line: ELISA on biotinylated peptide. How it is done: as §2

Assay [5] addresses T5, Tau 251-270 peptide phosphorylated at both Ser258 and Ser262 (human, N-terminal biotin; C-terminal amide; phosphoserine at 258 and 262 (numbering of SEQ ID NO:1)).
T5 construct: also called pSer258 and pSer262 peptide
T5 peptide: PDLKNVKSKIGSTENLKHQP
The experiment in a line: ELISA on biotinylated peptide. How it is done:
as §2

Assay [6] deals with T6, Tau 346-360 peptide phosphorylated at Ser356 (human, SMILES …).
T6 construct: also called pSer356
T6 peptide: Biotin-FKDRVQSKIG[pS]LDNI-NH2
The experiment in a line: ELISA on biotinylated peptide. How it is done: as §2

Assay [7] addresses T1, full-length human Tau (Tau441; 2N4R), …. The experiment in a line: Octet binning on biotin-r-Tau; competitor 1G7. How it is done:
(§3) Epitope binning assays were performed using a FortéBio® Octet® RED384 instrument using FortéBio® Streptavidin biosensors. Biotinylated recombinant Tau was diluted to a concentration of 2 μg/mL in kinetic buffer (obtained from FortéBio®) and captured onto individual biosensors for 1 minute. A baseline was then established for 1 minute in kinetic buffer. The loaded biosensors were dipped into 10 μg/mL of the first chimeric IgG antibody until signal saturation, followed by dipping into 1 μg/mL of a second antibody. The binding for the second antibody was normalized to its total binding in the absence of the first antibody.
(In general: In BLI a coated tip is dipped into the sample, and binding shifts an interference pattern.)

Assay [8] has the same target. The experiment in a line: Octet binning on biotin-r-Tau; competitor 1C7. How it is done:
as §3

The next assay has as its target T7, cynomolgus monkey Tau (cynomolgus monkey, UniProt P57786 2-459 (rhesus entry)).
T7 construct: also called cyno Tau; cyno-Tau
The experiment in a line: ELISA, hybridoma antibody. Here is the method: Primary screening was performed by coating 96-well ELISA Nunc plates overnight at 4° C. with 1 μg/mL r-Tau in PBS. The plates were washed three times with PBST using a Biotek plate washer. 50 µL/well of hybridoma supernatants were added to the plates with incubation at room temperature for 1 hour. Plates were washed three times with PBST. A secondary detection antibody goat X m HRP (Southern Biotech) at 1:2000 dilution, 50 μL/well was added to the plate and incubated for 1 hour at room temperature. At the end of an hour, plates were washed three time with PBST. Plates were developed with 50 μL/well of TMB substrate (Thermo Fisher) and quenched with 50 μL/well of 1N sulfuric acid. The signal was quantified on a BioTek® plate reader at A450. Wells with an OD three times the background for r-Tau were considered positive and carried forward for secondary screening.
Positives from primary screening were carried forward into the secondary screening where they were screened by ELISA using the above protocol on r-Tau, p-Tau, and cyno-Tau for binding and cross-reactivity. Further characterization on the five different Tau isoforms was performed by the same method.

The target of assay [9] is T8, Tau 186-205 peptide (17G2.A1 peptide) (human, N-terminal biotin).
T8 peptide: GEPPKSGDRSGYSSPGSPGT
The experiment in a line: direct ELISA on biotinylated peptide. Here is the method: The peptides were diluted in 3% BSA/TBST in 0.5 log dilutions starting at 1 μg/mL and bound to neutravidin coated plates. Plates were washed 5× with TBST between all steps. 17G2.A1 was diluted to 5 μg/mL in 3% BSA/TBST and incubated for 1 hour at room temperature, followed by incubation with anti-mouse IgG-HRP (Novex) diluted 1/5000 in BSA/TBST for 45 minutes at room temperature. ELISAs were developed with 50 μL of 1-step TMB Ultra.

The target of assay [10] is T1, full-length human Tau (Tau441; 2N4R), …. The experiment in a line: SPR Biacore, antibody captured, r-Tau injected. How it is done:
as §1, with “each hybridoma antibody” for “chimeric IgG antibodies 1C7, 1A1, 1A5, 1D10, and 1G7”, “r-Tau” for “recombinant Tau”, “polyclonal rabbit anti-mouse” for “monoclonal mouse anti-human”, “(mouse” for “(human”, “injection,” for “injection”, “10 mM Glycine-HCl (pH 1.7).” for “3M MgCl₂.”

T1 sequence (P10636 other isoform, or with tags, fused parts or gaps limits assumed): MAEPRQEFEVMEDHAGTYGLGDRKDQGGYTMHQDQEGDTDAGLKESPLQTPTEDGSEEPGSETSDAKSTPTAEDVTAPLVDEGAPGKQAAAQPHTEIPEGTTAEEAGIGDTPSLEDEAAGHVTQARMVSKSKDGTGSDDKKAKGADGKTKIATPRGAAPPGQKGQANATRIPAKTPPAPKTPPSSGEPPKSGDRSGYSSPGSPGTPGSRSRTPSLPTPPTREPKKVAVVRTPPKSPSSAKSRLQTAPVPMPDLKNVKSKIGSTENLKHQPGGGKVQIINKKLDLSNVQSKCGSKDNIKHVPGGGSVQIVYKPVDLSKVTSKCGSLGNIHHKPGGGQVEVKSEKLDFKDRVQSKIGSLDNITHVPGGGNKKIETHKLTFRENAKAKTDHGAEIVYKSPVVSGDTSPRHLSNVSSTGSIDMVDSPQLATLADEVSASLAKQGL
T7 sequence (P57786 other isoform, or with tags, fused parts or gaps limits assumed): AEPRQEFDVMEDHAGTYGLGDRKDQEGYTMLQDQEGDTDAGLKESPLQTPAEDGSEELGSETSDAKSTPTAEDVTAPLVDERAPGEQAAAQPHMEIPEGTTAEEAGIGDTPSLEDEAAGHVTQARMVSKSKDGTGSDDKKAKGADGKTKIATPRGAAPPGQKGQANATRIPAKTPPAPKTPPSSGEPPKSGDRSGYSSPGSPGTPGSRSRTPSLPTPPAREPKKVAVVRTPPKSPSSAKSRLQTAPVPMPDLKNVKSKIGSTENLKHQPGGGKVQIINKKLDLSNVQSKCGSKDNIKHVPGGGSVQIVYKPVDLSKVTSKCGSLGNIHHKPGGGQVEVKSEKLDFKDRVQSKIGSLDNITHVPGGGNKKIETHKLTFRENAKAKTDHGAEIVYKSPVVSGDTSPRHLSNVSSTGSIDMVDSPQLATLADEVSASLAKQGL

B1: chimeric IgG clone 1A1 (antibody, V domains shown)
VH: EVQLQQSGAELVRPGASVRLSCTASGFNIKDSLMHWLKQRPEQGLEWIGWIDPEDGETKYAPKFQDKATITADTSSNTAYLQLSSLTSEDTAIYYCTRRDWEGPWGQGTLVTVSA
VL: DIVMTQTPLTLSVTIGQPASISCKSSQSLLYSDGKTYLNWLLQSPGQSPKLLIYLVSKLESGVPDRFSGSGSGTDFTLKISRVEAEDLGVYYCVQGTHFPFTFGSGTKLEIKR
notes: mouse-human chimeric IgG from HEK293; also called anti-Tau 1A1; anti-Tau^1A1
For the molecule B1, the Kd in assay [1] was 0.02 nM. The binding result in [2], in assay [3], in assay [4], in assay [5] and in [6] was “binds” in each case.

B2: chimeric IgG clone 1G7 (antibody, V domains shown)
VH: B1 VH with L11V, R19K, A24T, E89G, T97A
VL: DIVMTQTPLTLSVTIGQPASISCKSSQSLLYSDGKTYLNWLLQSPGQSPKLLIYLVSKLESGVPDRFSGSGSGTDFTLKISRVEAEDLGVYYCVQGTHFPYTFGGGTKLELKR
notes: mouse-human chimeric IgG from HEK293
For the molecule B2, the “normalized binding of second antibody” value is -0.03 in assay [7] and 0.85 in assay [8]. Further, the Kd in [1] is 0.1 nM. Further, the binding result in assay [2], in assay [3] and in assay [4] was “binds” each time.

B3: chimeric IgG clone 1D10 (antibody, V domains shown)
VH: EVQLQQSGAELVRPGASVKLSCTASGFNIKDSLMHWMKQRPEQGLEWIGWIDPEDGETKYAPKFQDKATLTADTSSNAAYLQLSSLTSEDTAIYYCVRGDWDGGYWGQGTTLTVSS
VL: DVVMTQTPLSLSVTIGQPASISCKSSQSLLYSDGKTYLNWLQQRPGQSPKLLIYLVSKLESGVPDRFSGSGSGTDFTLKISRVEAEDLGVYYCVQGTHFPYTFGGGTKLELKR
notes: as for B2
As for B3, the “normalized binding of second antibody” value in assay [7] came to 0.12; in assay [8] it was 0.88. The Kd in [1] worked out at 0.2 nM. Further, the binding result in assay [3] and in assay [4] was “binds” each time.

B4: murine anti-Tau hybridoma antibody 17G2.A1 (antibody, V domains shown)
VH: QVQLQQPGAELVGPGSSVKLSCKASGYTFINYWIDWMKQSPGQGLEWIGNIYPSDSESHYNQKFTDKATLTVDISSSTAYLQLSSLTSEDSAVYYCALYSKGYWGQGTSVTVSS
VL: DVLMTQTPLSLPVTLGDQASISCRSSQNIVHTNGNTYLEWYLQKPGQSPKLLIYKLSSRFSGVPDRFSGSGSGTDFTLKISRVEAEDLGVYYCFQGSHLPFTFGGGTKLEIKR
notes: mouse IgG from hybridoma; also called anti-Tau 17G2.A1
For B4, the binding result with cynomolgus monkey Tau is reported as “binds”. Also, the binding result in assay [9] is listed as “binds”. In assay [10], the dissociation constant Kd was found to be 2.48 nM, the koff was determined as 0.000383 s⁻¹ and the on-rate (kon) stood at 155000 M⁻¹ s⁻¹.

B5: chimeric IgG clone 1A5 (antibody, V domains shown)
VH: EVQLQQSGAELVRPGASVKLSCTASGFNIKDSLIHWVKQRPEQGLEWIGWIDPEDGETKYAPKFQDKATKTADTSSNTAYLQLSSLTSEDTAIYYCASGEWDYWGQGTSVTVSS
VL: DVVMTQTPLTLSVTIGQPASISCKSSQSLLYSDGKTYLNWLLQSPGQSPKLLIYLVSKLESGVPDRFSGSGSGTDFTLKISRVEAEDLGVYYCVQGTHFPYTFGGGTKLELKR
notes: as for B2
Take B5: the “normalized binding of second antibody” value in [7] is -0.1; in assay [8], 0.7. For the same molecule, the Kd in assay [1] worked out at 0.2 nM. The binding result in [3] and in assay [4] was “binds” in each case.
